Results from patent US20180244769A1 (Ablynx, published 2018).

Legend:
[1] = molecular target: human P2X7 (hP2X7) (human) (UniProt Q99572); experiment: flow cytometry, HEK cells co-transfected with GFP and hP2X7, bound antibody detected with Alexa647 anti-mouse IgG; other quadrants: UL 0.5, LL 9, LR 19
[2] = molecular target: human P2X7 (hP2X7) (human) (UniProt Q99572); experiment: cell-based or functional assay
[3] = molecular target: human P2X7 (hP2X7) (human) (UniProt Q99572); experiment: flow cytometry of whole blood of one donor, gate on lymphocytes, Alexa647 conjugate with anti-CD4; blocked = pre-incubated with excess unlabelled Nb-Fc (legend: 3 ug each of 1c113-Fc and 3c23-Fc); lower quadrants 43 and 55
[4] = molecular target: human P2X7 (hP2X7) (human) (UniProt Q99572); experiment: flow cytometry on human peripheral blood lymphocytes of a single donor, CD4+ cells
[5] = molecular target: human P2X7 (hP2X7) (human) (UniProt Q99572); experiment: flow cytometry of whole blood of one donor, gate on lymphocytes, Alexa647 conjugate with anti-CD4; unblocked = pre-incubated with control 1067-Fc; lower quadrants 32 and 33
mouse P2X7 (mP2X7) = molecular target: T1, mouse P2X7 (mP2X7) (mus musculus, UniProt Q9Z1M0 1-595); experiment: flow cytometry, HEK cells co-transfected with GFP and mP2X7, bound antibody detected with Alexa647 anti-mouse IgG; other quadrants: UL 64, LL 26, LR 5.5
T1 construct: Also used here for endogenous P2X7 on Yac-1 cells, primary mouse lymphocytes and macrophages
T1 chain: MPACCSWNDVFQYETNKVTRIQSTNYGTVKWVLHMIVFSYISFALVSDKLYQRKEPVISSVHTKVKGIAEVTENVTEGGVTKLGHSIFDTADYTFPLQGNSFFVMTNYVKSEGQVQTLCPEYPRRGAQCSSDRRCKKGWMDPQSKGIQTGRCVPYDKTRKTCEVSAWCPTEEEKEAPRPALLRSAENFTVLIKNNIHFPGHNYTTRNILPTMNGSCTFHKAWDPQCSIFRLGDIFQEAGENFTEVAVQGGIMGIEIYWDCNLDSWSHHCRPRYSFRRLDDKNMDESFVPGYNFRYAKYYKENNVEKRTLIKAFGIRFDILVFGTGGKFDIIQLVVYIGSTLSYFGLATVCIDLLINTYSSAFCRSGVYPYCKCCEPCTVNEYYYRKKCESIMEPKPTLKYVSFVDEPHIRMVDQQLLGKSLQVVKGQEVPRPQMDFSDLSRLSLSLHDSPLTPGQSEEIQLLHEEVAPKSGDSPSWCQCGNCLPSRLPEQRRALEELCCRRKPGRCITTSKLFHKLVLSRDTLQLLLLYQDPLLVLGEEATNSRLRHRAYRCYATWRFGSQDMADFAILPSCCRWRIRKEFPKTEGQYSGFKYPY

[6] = molecular target: human P2X7 (hP2X7) (human) (UniProt Q99572); experiment: flow cytometry on human peripheral blood lymphocytes of a single donor, CD4- cells
rat P2X7 (rP2X7) = molecular target: T2, rat P2X7 (rP2X7) (Rattus norvegicus, UniProt Q64663 1-595); experiment: flow cytometry, HEK cells co-transfected with GFP and rP2X7, bound antibody detected with Alexa647 anti-mouse IgG; other quadrants: UL 1, LL 7.5, LR 21
T2 sequence: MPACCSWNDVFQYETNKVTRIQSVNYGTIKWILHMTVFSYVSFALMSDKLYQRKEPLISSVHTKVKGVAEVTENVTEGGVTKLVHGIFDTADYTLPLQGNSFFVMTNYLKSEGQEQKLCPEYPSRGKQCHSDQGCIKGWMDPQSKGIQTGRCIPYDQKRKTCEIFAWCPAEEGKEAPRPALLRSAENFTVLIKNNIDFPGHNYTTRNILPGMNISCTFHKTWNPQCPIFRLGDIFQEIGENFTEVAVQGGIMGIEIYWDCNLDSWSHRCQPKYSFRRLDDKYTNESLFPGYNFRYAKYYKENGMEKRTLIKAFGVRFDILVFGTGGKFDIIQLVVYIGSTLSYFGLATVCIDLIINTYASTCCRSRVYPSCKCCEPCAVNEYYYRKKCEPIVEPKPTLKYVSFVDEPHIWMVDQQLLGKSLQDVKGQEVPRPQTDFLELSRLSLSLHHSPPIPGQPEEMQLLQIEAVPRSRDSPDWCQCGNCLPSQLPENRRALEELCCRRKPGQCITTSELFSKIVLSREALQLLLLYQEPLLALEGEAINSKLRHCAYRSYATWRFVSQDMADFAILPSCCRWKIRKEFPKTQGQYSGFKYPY

Sequence of human P2X7 (hP2X7) (human) (Q99572 whole entry): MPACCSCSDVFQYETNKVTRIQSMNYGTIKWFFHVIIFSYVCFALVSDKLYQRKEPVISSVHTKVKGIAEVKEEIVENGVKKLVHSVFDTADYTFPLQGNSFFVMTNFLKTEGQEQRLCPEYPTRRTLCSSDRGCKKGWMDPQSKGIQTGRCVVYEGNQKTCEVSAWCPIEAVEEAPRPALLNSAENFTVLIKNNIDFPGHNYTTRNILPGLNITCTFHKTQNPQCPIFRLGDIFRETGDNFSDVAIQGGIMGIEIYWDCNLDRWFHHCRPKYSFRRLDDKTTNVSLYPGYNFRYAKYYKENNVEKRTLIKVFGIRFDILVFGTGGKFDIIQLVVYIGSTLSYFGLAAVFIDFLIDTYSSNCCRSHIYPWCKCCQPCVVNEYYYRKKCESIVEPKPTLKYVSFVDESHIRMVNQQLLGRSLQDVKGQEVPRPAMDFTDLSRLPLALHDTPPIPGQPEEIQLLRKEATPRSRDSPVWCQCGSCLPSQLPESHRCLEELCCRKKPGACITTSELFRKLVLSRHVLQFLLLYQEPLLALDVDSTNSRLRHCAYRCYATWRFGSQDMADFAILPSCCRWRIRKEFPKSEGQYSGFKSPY

% of cells in the GFP+ / anti-mIgG A647+ quadrant (upper right) [1]: 72%
IC50 [nM], blockade of L-selectin (CD62L) shedding in transfected HEK cells, 4 mM ATP [2]: > 19 nM
IC50 [ng/ml], blockade of L-selectin (CD62L) shedding in transfected HEK cells, 4 mM ATP [2]: > 2800 ng/mL
% of lymphocytes in the CD4+ / AF647+ quadrant (upper right), blocked [3]: 0.6%
% of lymphocytes in the CD4- / AF647+ quadrant (upper left), blocked [3]: 0.9%
MFI [4]: 11
% of lymphocytes in the CD4+ / AF647+ quadrant (upper right), unblocked [5]: 22%
% of lymphocytes in the CD4- / AF647+ quadrant (upper left), unblocked [5]: 13%
% of cells in the GFP+ / anti-mIgG A647+ quadrant (upper right) (mouse P2X7 (mP2X7)): 4.8%
MFI [6]: 10
% of cells in the GFP+ / anti-mIgG A647+ quadrant (upper right) (rat P2X7 (rP2X7)): 70%
Substance: mAb L4 (anti-hP2X7 mouse monoclonal antibody)
